According to patent US8927007B2, “Formulations for treatment with glucosinolates” (priority 2010, dated 2015):

Assays:
[1] = Long-term stability of myrosinase on Concanavalin A-Sepharose gels; format: physicochemical
Protocol: Con-A gel (1 ml) was packed in a 3 ml syringe, washed with 5 portions of 5 ml of 10 mM midazole, 1 mD EDTA, 1 mM DTT, 30% glycerol, pH 6.0. Subsequently, 10 ml of purified myrosinase (2.9 units/ml) (from 7 day-old daikon sprouts as described in Shikita et al. Biochem J. (1999) 341:725-732) were applied to the column and the effluent collected and reapplied to the column 3 more times until no activity was detected in the effluent. After washing 5 times with 5 ml of 33 mM potassium phosphate buffer (pH 6.0), 1 mM EDTA, and 0.5 mM ascorbate, the gel was transferred to a 10 ml syringe and mixed with 10 ml of 10 mM sinigrin in 33 mM potassium phosphate buffer. Aliquots (20 μl of the solution was withdrawn from the mixture every 30 sec., diluted with 0.98 ml of the 33 mM phosphate buffer, and the absorbance was measured at 227 nm against the same buffer. […]

[2] = Activity of myrosinase immobilized on Concanavalin A-Sepharose gel (sinigrin hydrolysis, absorbance at 227 nm); format: biochemical
Protocol: Con-A gel (1 ml) was packed in a 3 ml syringe, washed with 5 portions of 5 ml of 10 mM midazole, 1 mD EDTA, 1 mM DTT, 30% glycerol, pH 6.0. Subsequently, 10 ml of purified myrosinase (2.9 units/ml) (from 7 day-old daikon sprouts as described in Shikita et al. Biochem J. (1999) 341:725-732) were applied to the column and the effluent collected and reapplied to the column 3 more times until no activity was detected in the effluent. After washing 5 times with 5 ml of 33 mM potassium phosphate buffer (pH 6.0), 1 mM EDTA, and 0.5 mM ascorbate, the gel was transferred to a 10 ml syringe and mixed with 10 ml of 10 mM sinigrin in 33 mM potassium phosphate buffer. Aliquots (20 μl of the solution was withdrawn from the mixture every 30 sec., diluted with 0.98 ml of the 33 mM phosphate buffer, and the absorbance was measured at 227 nm against the same buffer. After 10 collections (5 min), the gel was washed with 3 portions of 5 ml of 33 mM potassium phosphate buffer, and 3 portions of 5 ml 10 mM midazole, 1 mM EDTA, 1 mD DTT, 30% glycerol, pH 6.0, and stored at 4° C. for the next test.

sinigrin hydrolyzed ([2]; immobilized on Con-A gel, 10 ml of 10 mM sinigrin in 33 mM potassium phosphate buffer, 10 collections (5 min)): more than 25 μmol
Substance: myrosinase (β-thioglucoside glucohydrolase) [Immobilized enzyme]
stability without refrigeration ([1]; immobilized on Con-A gels, without refrigeration): stable indefinitely
changes of activity on storage ([1]; over at least the next 7 days, kept at 4° C. in 20% glycerol): no significant changes of activity
stability of immobilized enzyme at room temperature ([1]; room temperature, period of several weeks): stable
elution of the enzyme from the column ([1]; under conditions required for hydrolysis): no significant elution
enzymatic activity when immobilized on Con-A gels ([2]; immobilized on Con-A gels): retain its enzymatic activity
